In US20220017608A1:

How the values were obtained:
Assay in all cases: Biacore 3000, 25 °C, alanine scan: N-biotinylated peptide on SA chip, G1 Fab titrated; fold loss versus wild-type 25-37 fragment
[1] = molecular target: T1, S34A
T1 sequence (peptide, N-terminal biotin): NNFVPTNVGAKAF

[2] = molecular target: T2, G33A
T2 sequence (peptide, N-terminal biotin): NNFVPTNVASKAF

[3] = molecular target: T3, F37A
T3 sequence (peptide, N-terminal biotin): NNFVPTNVGSKAA

- Fold loss in affinity [1]: 10.9 fold
- Fold loss in affinity [2]: 504 fold
- Fold loss in affinity [3]: 339 fold
B1: Fab fragments of antibody G1 (Fab, V domains shown)
VH: EVQLVESGGGLVQPGGSLRLSCAASGFTFSNYWISWVRQAPGKGLEWVAEIRSESDASATHYAEAVKGRFTISRDNAKNSLYLQMNSLRAEDTAVYYCLAYFDYGLAIQNYWGQGTLVTVSS
VL: EIVLTQSPATLSLSPGERATLSCKASKRVTTYVSWYQQKPGQAPRLLIYGASNRYLGIPARFSGSGSGTDFTLTISSLEPEDFAVYYCSQSYNYPYTFGQGTKLEIK
